Experiments:
[1] = molecular target: His-tagged ectodomain of cynomolgus transferrin receptor 1 (cTfR1), amino acids R121-F760 (cynomolgus monkey); assay: SPR; binder captured on protein A, receptor as analyte 0.156-40 nM; no hTf
[2] = molecular target: His-tagged ectodomain of human transferrin receptor 1 (hTfR1), amino acids R121-F760 (human) (UniProt P02786); assay: as above
[3] = molecular target: His-tagged ectodomain of cynomolgus transferrin receptor 1 (cTfR1), amino acids R121-F760 (cynomolgus monkey); assay: SPR; binder captured on protein A, receptor as analyte 0.156-40 nM; with 250 nM hTf
[4] = molecular target: His-tagged ectodomain of human transferrin receptor 1 (hTfR1), amino acids R121-F760 (human) (UniProt P02786); assay: as above
[5] = molecular target: Apical domain construct of hTfR1 displayed on M13 phage (human); assay: Seqitope mutagenic scanning of the phage-displayed apical domain of hTfR1
[6] = molecular target: His-tagged ectodomain of human transferrin receptor 1 (hTfR1), amino acids R121-F760 (human) (UniProt P02786); assay: SPR (Biacore T200, single-cycle); hTfR1 captured on amine-coupled hTf, binder as analyte 6.25-100 nM

Sequence of His-tagged ectodomain of cynomolgus transferrin receptor 1 (cTfR1), amino acids R121-F760 (cynomolgus monkey) (Q5RDH6 other isoform, or with tags, fused parts or gaps limits assumed): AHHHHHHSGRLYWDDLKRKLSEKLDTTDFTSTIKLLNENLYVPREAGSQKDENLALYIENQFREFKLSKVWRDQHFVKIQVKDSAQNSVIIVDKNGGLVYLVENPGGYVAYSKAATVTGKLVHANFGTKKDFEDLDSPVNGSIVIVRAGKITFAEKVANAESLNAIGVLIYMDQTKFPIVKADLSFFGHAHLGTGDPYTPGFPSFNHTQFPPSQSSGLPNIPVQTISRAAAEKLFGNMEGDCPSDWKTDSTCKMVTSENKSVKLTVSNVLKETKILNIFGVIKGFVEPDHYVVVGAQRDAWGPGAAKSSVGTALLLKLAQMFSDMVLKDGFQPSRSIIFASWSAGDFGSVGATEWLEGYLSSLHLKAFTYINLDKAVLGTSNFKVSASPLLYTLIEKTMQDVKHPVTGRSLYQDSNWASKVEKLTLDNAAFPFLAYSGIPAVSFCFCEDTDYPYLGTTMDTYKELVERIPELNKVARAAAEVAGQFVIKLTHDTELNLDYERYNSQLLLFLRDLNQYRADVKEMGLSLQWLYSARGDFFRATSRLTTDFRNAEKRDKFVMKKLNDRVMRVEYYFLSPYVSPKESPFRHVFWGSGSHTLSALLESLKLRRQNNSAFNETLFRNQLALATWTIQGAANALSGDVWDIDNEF
Sequence of His-tagged ectodomain of human transferrin receptor 1 (hTfR1), amino acids R121-F760 (human) (P02786 other isoform, or with tags, fused parts or gaps limits assumed): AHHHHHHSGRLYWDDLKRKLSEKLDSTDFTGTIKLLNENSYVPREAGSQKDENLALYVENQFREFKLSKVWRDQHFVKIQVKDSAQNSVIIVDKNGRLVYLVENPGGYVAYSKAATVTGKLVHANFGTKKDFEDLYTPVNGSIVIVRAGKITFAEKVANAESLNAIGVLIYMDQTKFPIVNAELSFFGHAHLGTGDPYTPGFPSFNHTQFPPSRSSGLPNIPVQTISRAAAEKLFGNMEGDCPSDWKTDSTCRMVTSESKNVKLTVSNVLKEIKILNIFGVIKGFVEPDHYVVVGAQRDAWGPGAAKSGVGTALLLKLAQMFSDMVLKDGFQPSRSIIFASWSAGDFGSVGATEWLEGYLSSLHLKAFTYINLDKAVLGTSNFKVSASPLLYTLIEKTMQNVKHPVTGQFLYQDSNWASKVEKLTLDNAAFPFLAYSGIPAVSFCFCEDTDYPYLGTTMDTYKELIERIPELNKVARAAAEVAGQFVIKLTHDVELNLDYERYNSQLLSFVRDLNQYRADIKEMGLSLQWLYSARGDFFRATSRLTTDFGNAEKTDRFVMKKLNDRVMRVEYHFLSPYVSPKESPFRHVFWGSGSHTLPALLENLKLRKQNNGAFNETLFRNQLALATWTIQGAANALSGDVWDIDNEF

Benchmark antibody 128.1 (BA1), full length human IgG1
Kd [1]: 0.414 nM
koff [1]: 8.85e-05 s⁻¹
kon [1]: 214000 M⁻¹ s⁻¹
Kd [2]: 0.101 nM
koff [2]: 8.87e-05 s⁻¹
kon [2]: 882000 M⁻¹ s⁻¹
Kd [3]: 0.33 nM
koff [3]: 8e-05 s⁻¹
kon [3]: 242000 M⁻¹ s⁻¹
Kd [4]: 0.0834 nM
koff [4]: 5.77e-05 s⁻¹
kon [4]: 692000 M⁻¹ s⁻¹
Binding Ratio (BR) of residue D242 [5]: 3.56
Binding Ratio (BR) of residue E369 [5]: 6.88
Binding Ratio (BR) of residue G351 [5]: 3.27
Binding Ratio (BR) of residue L246 [5]: 3.36
Binding Ratio (BR) of residue P249 [5]: 2.64
Binding Ratio (BR) of residue R364 [5]: 2.64
Binding Ratio (BR) of residue V366 [5]: 4.15
Kd [6]: 0.0199 nM
koff [6]: 5.63e-05 s⁻¹
kon [6]: 2.82e+06 M⁻¹ s⁻¹
